Assays:
[1] = molecular target: T1, ProQ (minimal ProQ, FinO domain with short N- and C-terminal extensions) (Neisseria meningitidis) (UniProt Q9JY98); assay: EMSA; details: 25 mM Tris pH 7.5, 150 mM NaCl, 5% glycerol, 1 mM MgCl2, 1 nM 32P-RNA, ProQ up to 50 nM, 30 min at room temperature; 6% native gel at 4 C
T1 sequence: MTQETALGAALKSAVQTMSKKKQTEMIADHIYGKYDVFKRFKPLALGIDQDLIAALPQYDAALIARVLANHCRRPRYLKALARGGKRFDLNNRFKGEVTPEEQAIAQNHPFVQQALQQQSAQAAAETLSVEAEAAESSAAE

[2] = molecular target: T2, ProQ (minimal ProQ, FinO domain with short N- and C-terminal extensions) (Neisseria meningitidis, UniProt Q9JY98 1-141); assay: EMSA; max bound 89%; 25 mM Tris pH 7.5, 150 mM NaCl, 5% glycerol, 1 mM MgCl2, 1 nM 32P-RNA, ProQ up to 50 nM, 30 min at room temperature; 6% native gel at 4 C; details: protein: recombinant, tags: N-terminal His6-TEV, cleaved, one extra N-terminal Ser remains, label: 5'-32P, terminator hairpin
T2 sequence: T1 sequence

[3] = molecular target: T2, ProQ (minimal ProQ, FinO domain with …); assay: EMSA; max bound 66%; estimated, not accurately fit; 25 mM Tris pH 7.5, 150 mM NaCl, 5% glycerol, 1 mM MgCl2, 1 nM 32P-RNA, ProQ up to 50 nM, 30 min at room temperature; 6% native gel at 4 C; details: protein: recombinant; tags: N-terminal His6-TEV, cleaved; one extra N-terminal Ser remains; label: 5'-32P; terminator hairpin, 7 nt 3' tail
[4] = molecular target: T2, ProQ (minimal ProQ, FinO domain with …); assay: EMSA; undetected up to 50 nM ProQ; 25 mM Tris pH 7.5, 150 mM NaCl, 5% glycerol, 1 mM MgCl2, 1 nM 32P-RNA, ProQ up to 50 nM, 30 min at room temperature; 6% native gel at 4 C; details: protein: recombinant; tags: N-terminal His6-TEV, cleaved; one extra N-terminal Ser remains; label: 5'-32P; terminator hairpin, no tail
[5] = molecular target: T2, ProQ (minimal ProQ, FinO domain with …); assay: EMSA; max bound 86%; 25 mM Tris pH 7.5, 150 mM NaCl, 5% glycerol, 1 mM MgCl2, 1 nM 32P-RNA, ProQ up to 50 nM, 30 min at room temperature; 6% native gel at 4 C; details: protein: recombinant; tags: N-terminal His6-TEV, cleaved; one extra N-terminal Ser remains; label: 5'-32P
[6] = molecular target: T2, ProQ (minimal ProQ, FinO domain with …); assay: EMSA; max bound 88%; 25 mM Tris pH 7.5, 150 mM NaCl, 5% glycerol, 1 mM MgCl2, 1 nM 32P-RNA, ProQ up to 50 nM, 30 min at room temperature; 6% native gel at 4 C; details: protein: recombinant, tags: N-terminal His6-TEV, cleaved, one extra N-terminal Ser remains, label: 5'-32P, terminator hairpin
[7] = molecular target: T2, ProQ (minimal ProQ, FinO domain with …); assay: EMSA; max bound 80%; 25 mM Tris pH 7.5, 150 mM NaCl, 5% glycerol, 1 mM MgCl2, 1 nM 32P-RNA, ProQ up to 50 nM, 30 min at room temperature; 6% native gel at 4 C; details: protein: recombinant; tags: N-terminal His6-TEV, cleaved; one extra N-terminal Ser remains; label: 5'-32P; hairpin, GAAA loop
[8] = molecular target: T2, ProQ (minimal ProQ, FinO domain with …); assay: EMSA; max bound 91%; 25 mM Tris pH 7.5, 150 mM NaCl, 5% glycerol, 1 mM MgCl2, 1 nM 32P-RNA, ProQ up to 50 nM, 30 min at room temperature; 6% native gel at 4 C; details: protein: recombinant; tags: N-terminal His6-TEV, cleaved; one extra N-terminal Ser remains; label: 5'-32P; hairpin, GAAA loop
[9] = molecular target: T2, ProQ (minimal ProQ, FinO domain with …); assay: EMSA; max bound 53%; 25 mM Tris pH 7.5, 150 mM NaCl, 5% glycerol, 1 mM MgCl2, 1 nM 32P-RNA, ProQ up to 50 nM, 30 min at room temperature; 6% native gel at 4 C; details: protein: recombinant; tags: N-terminal His6-TEV, cleaved; one extra N-terminal Ser remains; label: 5'-32P; terminator hairpin, 4-U tail
[10] = molecular target: T2, ProQ (minimal ProQ, FinO domain with …); assay: EMSA; max bound 85%; 25 mM Tris pH 7.5, 150 mM NaCl, 5% glycerol, 1 mM MgCl2, 1 nM 32P-RNA, ProQ up to 50 nM, 30 min at room temperature; 6% native gel at 4 C; details: protein: recombinant; tags: N-terminal His6-TEV, cleaved; one extra N-terminal Ser remains; label: 5'-32P; terminator hairpin, 5-U tail
[11] = molecular target: T2, ProQ (minimal ProQ, FinO domain with …); assay: EMSA; max bound 58%; 25 mM Tris pH 7.5, 150 mM NaCl, 5% glycerol, 1 mM MgCl2, 1 nM 32P-RNA, ProQ up to 50 nM, 30 min at room temperature; 6% native gel at 4 C; details: protein: recombinant; tags: N-terminal His6-TEV, cleaved; one extra N-terminal Ser remains; label: 5'-32P; terminator hairpin, 4-U tail
[12] = molecular target: T2, ProQ (minimal ProQ, FinO domain with …); assay: EMSA; max bound 90%; 25 mM Tris pH 7.5, 150 mM NaCl, 5% glycerol, 1 mM MgCl2, 1 nM 32P-RNA, ProQ up to 50 nM, 30 min at room temperature; 6% native gel at 4 C; details: protein: recombinant; tags: N-terminal His6-TEV, cleaved; one extra N-terminal Ser remains; label: 5'-32P; terminator hairpin, 5-U tail
[13] = molecular target: T2, ProQ (minimal ProQ, FinO domain with …); assay: EMSA; max bound 64%; 25 mM Tris pH 7.5, 150 mM NaCl, 5% glycerol, 1 mM MgCl2, 1 nM 32P-RNA, ProQ up to 50 nM, 30 min at room temperature; 6% native gel at 4 C; details: protein: recombinant; tags: N-terminal His6-TEV, cleaved; one extra N-terminal Ser remains; label: 5'-32P; hairpin, GAAA loop
[14] = molecular target: T2, ProQ (minimal ProQ, FinO domain with …); assay: EMSA; max bound 81%; 25 mM Tris pH 7.5, 150 mM NaCl, 5% glycerol, 1 mM MgCl2, 1 nM 32P-RNA, ProQ up to 50 nM, 30 min at room temperature; 6% native gel at 4 C; details: protein: recombinant; tags: N-terminal His6-TEV, cleaved; one extra N-terminal Ser remains; label: 5'-32P; terminator hairpin, GAAA loop
[15] = molecular target: T2, ProQ (minimal ProQ, FinO domain with …); assay: EMSA; max bound 53%; Hill fit; 25 mM Tris pH 7.5, 150 mM NaCl, 5% glycerol, 1 mM MgCl2, 1 nM 32P-RNA, ProQ up to 50 nM, 30 min at room temperature; 6% native gel at 4 C; details: protein: recombinant; tags: N-terminal His6-TEV, cleaved; one extra N-terminal Ser remains; label: 5'-32P; terminator hairpin, GAAA loop
[16] = molecular target: T2, ProQ (minimal ProQ, FinO domain with …); assay: EMSA; max bound 79%; 25 mM Tris pH 7.5, 150 mM NaCl, 5% glycerol, 1 mM MgCl2, 1 nM 32P-RNA, ProQ up to 50 nM, 30 min at room temperature; 6% native gel at 4 C; details: protein: recombinant; tags: N-terminal His6-TEV, cleaved; one extra N-terminal Ser remains; label: 5'-32P; terminator hairpin, 6-U tail

## carA-5'
[1]
  Kd: 1.3 nM

## iga-3'
[1]
  Kd: 0.3 nM

## pnp-5'
[1]
  Kd: 7.9 nM

## GGGAUUUCAGUUUGAAAGCAAAGCCUCCGACUGUUCGGAGGCUUUUUUAU (structured_RNA) [rpmG-U6AU]
[2]; 8 nt 3' tail
  Kd: 0.2 ± 0.23 nM

## GGGAUUUCAGUUUGAAAGCAAAGCCUCCGACUGUUCGGAGGCUUUUUUA (structured_RNA) [rpmG-U6A]
[3]
  Kd: < 0.5 nM

## GGUUUCCUCUUGAUGUGUGUGUUUGGGUGUGGCUGCCGCCACCCC (structured_RNA) [AniS-noU]
[4]
  binding result: no binding

B1: intergenic (structured_RNA)
RNA: GGUAAUGCCGAAAGGGGUUUGACGAUGCCGGCGUGCGCUGUCAAACCCUUUUUCU
[5]
  Kd: 1.4 ± 1 nM

B2: rpmG-U6AU2 (structured_RNA)
RNA: GGGAUUUCAGUUUGAAAGCAAAGCCUCCGACUGUUCGGAGGCUUUUUUAUU
[6]; 9 nt 3' tail
  Kd: 0.22 ± 0.26 nM

## GGGAUUUCAGUUUGAAAGCAAAGCCUGAAAAGGCUUUUUU (structured_RNA) [rpmG-loop-40]
[7]
  Kd: 1.2 ± 1.5 nM

B3: AniS-U7 (structured_RNA)
RNA: GGUUUCCUCUUGAUGUGUGUGUUUGGGUGUGGCUGCCGCCACCCCUUUUUUU
[6]; 7-U tail
  Kd: 0.82 ± 0.21 nM

## GGGAUUUCAGUUUGAAAGCAAAGCCUCCGAAAGGAGGCUUUUUU (structured_RNA) [rpmG-loop-44]
[8]
  Kd: 4 ± 2 nM

## GGUUUCCUCUUGAUGUGUGUGUUUGGGUGUGGCUGCCGCCACCCCUUUU (structured_RNA) [AniS-U4]
[9]
  Kd: 0.9 ± 0.58 nM

## GGGAUUUCAGUUUGAAAGCAAAGCCUCCGACUGUUCGGAGGCUUUUU (structured_RNA) [rpmG-U5]
[10]
  Kd: 0.47 ± 0.27 nM

## GGGAUUUCAGUUUGAAAGCAAAGCCUCCGACUGUUCGGAGGCUUUU (structured_RNA) [rpmG-U4]
[11]
  Kd: 2.6 ± 3.5 nM

## GGUUUCCUCUUGAUGUGUGUGUUUGGGUGUGGCUGCCGCCACCCCUUUUU (structured_RNA) [AniS-U5]
[12]
  Kd: 6.5 ± 1.3 nM

## GGGAUUUCAGUUUGAAAGCAAAGCGAAAGCUUUUUU (structured_RNA) [rpmG-loop-36]
[13]
  Kd: 0.13 ± 0.14 nM

## GGGAUUUCAGUUUGAAAGCAAAGCCUCCGAGAAAUCGGAGGCUUUUUU (structured_RNA) [rpmG-loop]
[14]
  Kd: 0.5 ± 0.34 nM

## GGGAUUUCAGUUUGAAAGCAAAGCCUCCGACUGUUCGGAGGCUUUUUU (structured_RNA) [rpmG-3']
[2]; 6-U 3' tail, 3 U paired with upstream A
  Kd: 1 ± 0.52 nM

B4: AniS-loop (structured_RNA)
RNA: GGUUUCCUCUUGAUGUGUGUGUUUGGGUGUGGCGAAAGCCACCCCUUUUUUUU
[15]
  Kd: 0.39 ± 0.18 nM

B5: AniS-U6 (structured_RNA)
RNA: GGUUUCCUCUUGAUGUGUGUGUUUGGGUGUGGCUGCCGCCACCCCUUUUUU
[16]
  Kd: 0.7 ± 0.62 nM

Source: paper PMC11912907, “RNA recognition by minimal ProQ from Neisseria meningitidis”
